Results as given in patent US20220340673A1 (HARBOUR BIOMED SUZHOU, published 2022).

Columns and labels:
[1] = biological target: T1, human BCMA on cells (HEK293T/huBCMA; NCI-H929) (human, UniProt Q02223 1-184); test: cell-based or functional assay
T1 sequence (looked up): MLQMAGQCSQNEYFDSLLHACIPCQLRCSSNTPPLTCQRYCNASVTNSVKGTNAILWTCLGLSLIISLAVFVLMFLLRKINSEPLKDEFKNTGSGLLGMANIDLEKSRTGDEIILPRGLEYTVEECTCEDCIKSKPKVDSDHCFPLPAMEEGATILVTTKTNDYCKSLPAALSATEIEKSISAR

[2] = biological target: T1, human BCMA on cells (HEK293T/huBCMA; …); test: FACS on HEK293T cell strain overexpressing human BCMA [C]
Excerpt: To study the in vitro binding activity of the BCMA arm of the BCMA×CD3 bispecific antibody, HEK293T cell strain overexpressing human BCMA (HEK293T/huBCMA) and HEK293T cell strain overexpressing cynomolgus monkey BCMA (HEK293T/cynoBCMA) were used for antibody binding experiments at cellular level. Briefly, HEK293T/huBCMA cells and HEK293T/cynoBCMA cells were digested and resuspended with DMEM complete medium. The cell density of the two was adjusted to 1×10⁶ cells/mL, respectively. Cells were inoculated at 100 μL cells/well in a 96 well V-bottom plate (Corning, Cat#: 3894), followed by the addition of test antibodies at 100 μL/well, which is gradient diluted at 3 folds of the concentration with 2 folds of the final concentration. Cells were incubated at 4° C. for 1 hour in the dark. Afterwards, the cells were washed twice with 100 μL/well of pre-cooled PBS, centrifuged at 500 g for 5 min at 4° C., and followed by discarding the supernatant. 100 μL/well of fluorescent secondary antibody (Alexa Fluor 488-conjugated AffiniPure Goat Anti-Human IgG, Fcγ Fragment Specific, Jackson, Cat#: 109-545-06, 1:500 dilution) was added and incubated for 30 min at 4° C. in the dark. […] Finally, the cells were resuspended with 200 μL/well of pre-cooled PBS, and the fluorescence luminescence signal values were read by BD FACS CANTOII. […]

B1: BCMA x CD3 bispecific antibody PR003178 (bispecific antibody, human IgG1, lambda, L234A L235A)
heavy 1: not shown
light: QAVVTQEPSLTVSPGGTVTLTCRSSTGAVTTSNYANWVQQKPGQAPRGLIGGTNKRAPWTPARFSGSLLGDKAALTLLGAQPEDEAEYFCALWYSNLWVFGGGTKLTVLGQPKAAPSVTLFPPSSEELQANKATLVCLISDFYPGAVTVAWKADSSPVKAGVETTTPSKQSNNKYAASSYLSLTPEQWKSHRSYSCQVTHEGSTVEKTVAPTECS
heavy 2: EVQLVETGGGLIQPGGSLRLSCAASGFTVSDNYMTWVRQAPGKGLEWVSVIFSGGNTYYADSVKGRFTISRDNAKNTLYLQMNSLRAEDTALYYCARRNYDDTRGTDVFDIWGQGTMVTVSSGGGGSGGGGSGGGGSEVQLVETGGGLIQPGGSLRLSCAASGFTVSDNYMTWVRQAPGKGLEWVSVIFSGGNTYYADSVKGRFTISRDNAKNTLYLQMNSLRAEDTALYYCARRNYDDTRGTDVFDIWGQGTMVTVSSASEPKSSDKTHTCPPCPAPEAAGGPSVFLFPPKPKDTLMISRTPEVTCVVVDVSHEDPEVKFNWYVDGVEVHNAKTKPREEQYNSTYRVVSVLTVLHQDWLNGKEYKCKVSNKALPAPIEKTISKAKGQPREPQVCTLPPSREEMTKNQVSLSCAVKGFYPSDIAVEWESNGQPENNYKTTPPVLDSDGSFFLVSKLTVDKSRWQQGNVFSCSVMHEALHNHYTQKSLSLSPGK
notes: Three chains: HC1 (anti-CD3 heavy, knob, LALA), LC (anti-CD3 lambda light), HC2 (two tandem anti-BCMA VH of PR001046 joined by (G4S)3, then Fc hole, LALA); also called PRO03178
EC50 of the killing curve (LDH release, human PBMC effector cells, NCI-H929 target cells), fold against positive control 2 [1]: 10 fold | EC50 [2]: 188 pM
